According to patent publication US20230121197A1, “ANTIBODIES SPECIFICALLY BINDING THE CARBOXYMETHYLATED CATALYTIC SUBUNIT OF PROTEIN PHOSPHATASE 2A” (Medizinische Universität Wien, priority 2020, published 2023):

Legend:
Format in all cases: binding
[1] = target: T1, carboxymethylated PP4c C-terminal peptide (ac-[…]-CH3) (Homo sapiens, UniProt P60510); test: Surface plasmon resonance (Biacore T200), steady state analysis, carboxymethylated PP4c peptide; conditions: PP4 Me peptide, 360 sec contact time, 40 μL/min
T1 construct: The following 11-mer peptides corresponding to the carboxymethylated or non-methylated carboxy-terminus of PP2A and PP4 catalytic subunits were used as antigens
Procedure: The differential affinity of anti-carboxymethylated PP2Ac antibodies, 7C10-C5 and 2A10, to carboxymethylated PP2A catalytic subunit versus noncarboxymethylated PP2A catalytic subunit was determined by surface plasmon resonance (SPR) on a Biacore T200 (GE Healthcare) at the Core Facility Biomolecular & Cellular Analysis (University of Natural Resources and Life Sciences Vienna BOKU). The affinity of 7C10-C5 for carboxymethylated and noncarboxymethylated catalytic subunit of PP4 (PP4c), a PP2A-related phosphatase, was also determined. […] The KD of the binding of 7C10-C5 (or 2A10) to non-carboxymethylated PP2Ac or PP4c could not be determined because at the highest analyte sample concentration (5000 nM) only very weak binding signals were detected indicating KD values of at least >5000 nM or higher. […]
SPR experiments were performed with the BiacoreT200 instrument (Cytiva). […] The sensorgrams obtained were analyzed with BiacoreT200 Evaluation Software (version 3.1). […]

HA-PP4c = target: T2, HA-PP4c (Mus musculus, UniProt P97470); test: Immunoblotting of anti-HA immunoprecipitates of NIH3T3 cells, PP4c
T2 construct: expressed in transfected cells; host or cells: NIH3T3 mouse fibroblasts, retroviral pBabe hygro HA-PP4c
T2 sequence (P97470 1-307): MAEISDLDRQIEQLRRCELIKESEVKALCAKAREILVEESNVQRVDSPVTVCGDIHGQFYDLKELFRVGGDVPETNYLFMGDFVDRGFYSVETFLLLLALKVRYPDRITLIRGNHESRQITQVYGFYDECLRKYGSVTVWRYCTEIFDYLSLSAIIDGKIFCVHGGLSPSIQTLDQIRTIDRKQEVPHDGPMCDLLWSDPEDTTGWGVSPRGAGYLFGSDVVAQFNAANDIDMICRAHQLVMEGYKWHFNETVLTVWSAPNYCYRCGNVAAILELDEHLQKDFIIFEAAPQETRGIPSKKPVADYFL
Description: (§1) The catalytic subunits of protein phosphatase 4 (PP4c) and 6 (PP6c) are closely related to PP2Ac with approximately 50% sequence identity. PP2Ac, PP4c and PP6c share the C-terminal DYFL or YFL motif, respectively (FIG. 8A). Therefore, a potential cross-reactivity of 7C10-C5 with α-carboxymethylated PP4c and/or PP6c was examined and compared to another anti-carboxymethyl-PP2Ac antibody 2A10. 2A10 is a carboxymethyl-PP2Ac specific antibody that has been raised against a larger C-terminal PP2Ac peptide (amino acids 302-309, carboxymethylated Leu^309) and that has been shown before to cross-react with α-carboxymethylated PP4c (Lee (2014), Biochem Biophys Res Commun 452, 42-47). HA tagged human PP2Ac a, mouse HA PP4c or mouse HA PP6c from NIH3T3 mouse fibroblasts stably expressing these HA-tagged proteins were immunoprecipitated. The precipitated proteins were then analyzed by immunoblotting with anti-carboxymethyl-PP2Ac antibodies 7C10-C5 or 2A10.
(§2) Specifically, 500 μl corresponding to 1 mg of whole cell protein lysates of NIH3T3 mouse fibroblasts were incubated with anti-hemagglutinin (HA) antibody (clone 12CA5) crosslinked to BSA-coated protein A-Sepharose beads (GE-Healthcare) to immunoprecipitate HA-epitope tagged PP2Ac, PP4c or PP6c for 1 h. […]

HA-PP6c = target: T3, HA-PP6c (Mus musculus, UniProt Q9CQR6); test: Immunoblotting of anti-HA immunoprecipitates of NIH3T3 cells, PP6c
T3 construct: expressed in transfected cells; host or cells: NIH3T3 mouse fibroblasts, retroviral pBabe hygro HA-PP6c
T3 sequence (Q9CQR6 1-305): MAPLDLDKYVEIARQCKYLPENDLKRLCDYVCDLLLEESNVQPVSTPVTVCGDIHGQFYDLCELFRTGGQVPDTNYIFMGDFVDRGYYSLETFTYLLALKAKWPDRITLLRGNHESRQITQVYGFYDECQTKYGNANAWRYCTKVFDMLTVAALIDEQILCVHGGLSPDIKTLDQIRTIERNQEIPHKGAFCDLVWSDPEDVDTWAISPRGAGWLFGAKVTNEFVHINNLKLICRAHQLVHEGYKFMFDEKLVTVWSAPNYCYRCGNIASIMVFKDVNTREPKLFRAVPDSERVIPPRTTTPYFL
Description: as §1, §2

[2] = Western blot of HA immunoprecipitates
[3] = Western blot, suggested since no discernable signal

B1: 7C10-C5: α-carboxymethylation specific mouse monoclonal IgG1 antibody from single clone hybridoma 7C10-C5 (DSM ACC3350) (antibody)
heavy: MYRMQLLSCIALSLALVTNSDVQLQESGPGLVKPSQSLSLTCSVTGYSITSGYYWNWIRQFPGNKLEWMGYISYDGSNNYNPSLKNRISITRDTSKNQFFLKLNSVTTEDTATYYCAGRFAYWGQGTLVTVSAAKTTAPSVYPLAPVCGDTTGSSVTLGCLVKGYFPEPVTLTWNSGSLSSGVHTFPAVLQSDLYTLSSSVTVTSSTWPSQSITCNVAHPASSTKVDKKIEPRGPTIKPCPPCKCPAPNLLGGPSVFIFPPKIKDVLMISLSPIVTCVVVDVSEDDPDVQISWFVNNVEVHTAQTQTHREDYNSTLRVVSALPIQHQDWMSGKEFKCKVNNKDLPAPIERTISKPKGSVRAPQVYVLPPPEEEMTKKQVTLTCMVTDFMPEDIYVEWTNNGKTELNYKNTEPVLDSDGSYFMYSKLRVEKKNWVERNSYSCSVVHEGLHNHHTTKSFSRTPGK
light: MDMRVPAQLLGLLLLWLSGARCDVLMTQTPLSLPVSLGDQASISCRSSQSIVHSNGNTYLEWYLQKPGQSPKLLIYKVSNRFSGVPDRFSGSGSGTDFTLKINRVEAEDLGVYYCFQGSHVPWTFGGGTKLEIKADAAPTVSIFPPSSEQLTSGGASVVCFLNNFYPKDINVKWKIDGSERQNGVLNSWTDQDSKDSTYSMSSTLTLTKDEYERHNSYTCEATHKTSTSPIVKSFNRNEC
modifications: Amino acid sequence of the recombinant 7C10-C5 heavy chain; Amino acid sequence of the recombinant 7C10-C5 light chain
Rmax [1]: 20.17 RU | detection of PP4c (HA-PP4c; [2]): did not detect | binding to carboxymethylated PP2Ac stronger than to carboxymethylated PP4c (HA-PP4c; [3]): 100-fold or even 500-fold | detection of PP6c (HA-PP6c; [2]): did not detect | binding to carboxymethylated PP2Ac stronger than to carboxymethylated PP6c (HA-PP6c; [3]): 100-fold or even 500-fold
